# Laboratory results reported in patent publication US20150330991A1 (GWANGJU INSTITUTE OF SCIENCE AND TECHNOLOGY, published 2015).
# B1: peptide 1 (WGGPVRGSWTWENGKWTWKGIIRLEQ) (peptide)
# peptide: WGGPVRGSWTWENGKWTWKGIIRLEQ
# notes: Synthetic in SPR; on phage in the colony ELISA; also called BPB2 peptide 1
# B2: peptide 2 (ADGRVRGSWTWENGKWTWKGIIRLEQ) (peptide)
# peptide: ADGRVRGSWTWENGKWTWKGIIRLEQ
# notes: Synthetic in SPR; on phage in the colony ELISA; also called BPB2 peptide 2
# B3: VEGFR1_opti1 (peptide)
# peptide: GNQWFIGGGSWTWENGKWTWKGRIPKNR
# notes: Synthetic peptide in SPR; also called optimized peptide VEGFR1_opti1; KPI-BPB VEGFR1_opti1
# B4: streptavidin-binding peptide WSHPQFEK (peptide)
# peptide: WSHPQFEK
# notes: Synthetic control peptide in SPR; also called known peptide
# Key:
# [1] = molecular target: T1, fibronectin extra domain B (ED-B) (UniProt P02751 1266-1356, biotinylated (biotin ED-B), site not stated); assay: SPR (BIAcore X), biotin-EDB on streptavidin SA chip, synthetic peptide as analyte; peptide 1
# T1 construct: domain: ED-B; Biotin-EDB captured on a streptavidin SA chip (2,000 RU) for SPR and on streptavidin-coated wells for ELISA; also called biotin ED-B; biotin-EDB
# T1 sequence (P02751 1266-1356 limits assumed): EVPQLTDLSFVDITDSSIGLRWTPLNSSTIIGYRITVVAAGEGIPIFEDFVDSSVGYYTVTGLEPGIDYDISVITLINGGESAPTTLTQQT
# Protocol: (§1) The bipodal peptide binder found from BPB2EDB, BPB3EDB, and BPB4EDB maturation libraries were synthesized (Anygen, Korea). The affinity measurement was conducted using BIAcore X (Biacore AB, Uppsala, Sweden). 2,000 RU of biotin-EDB was allowed to flow on the streptavidin SA chip (Biacore) for immobilization. PBS (pH 7.4) was used as a running buffer, and kinetics at different concentrations was measured under a flow rate of 30 μl per minute. The affinity was calculated using BlAevaluation software (Biacore AB, Uppsala, Sweden).
# [2] = molecular target: T1, fibronectin extra domain B (ED-B); assay: SPR (Biacore X), biotin-EDB on a streptavidin SA chip
# Protocol: as §1
# streptavidin [3] = molecular target: T2, streptavidin (UniProt P22629 37-163, limits assumed); assay: phage ELISA, wells coated with 5 µg/ml protein, anti-M13-HRP, absorbance at 450 nm
# T2 construct: Immobilised on a CM5 chip (2000 RU) for SPR; coated on plates for ELISA; also called streptavidin protein
# T2 sequence (P22629 37-163 limits assumed): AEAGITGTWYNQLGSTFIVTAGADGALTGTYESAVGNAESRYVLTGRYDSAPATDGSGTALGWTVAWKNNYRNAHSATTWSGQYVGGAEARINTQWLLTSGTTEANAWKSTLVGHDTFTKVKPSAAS
# Protocol: In order to investigate specificities to streptavidin, of peptides (VEGFR1_opti1, VEGFR1_opti2, and VEGFR1_opti3) obtained through sequencing, recombinant phages expressing these peptides were used to investigate specificities to VEGFR1, VEGFR2, streptavidin, HSA, TNF, and VEGF. First, 5 μg/ml VEGFR1, VEGFR2, streptavidin, HSA, TNF, and VEGF were put in a 96-well ELISA plate (50 μl per well), and then allowed to stand at 4° C. overnight. The next day, all the wells were washed three times with 0.1% PBST, and blocked at room temperature for 2 hrs using 2% BSA diluted with PBS. Then, the whole solution was discarded, followed by washing three times with 0.1% PBST. 800 μl of recombinant phages of each of VEGFR1_opti1, VEGFR1_opti2, and VEGFR1_opti3 and 200 μl of 10% BSA were added thereto, and each 100 μl was dispensed into VEGFR1, VEGFR2, streptavidin, HSA, TNF, and VEGF wells, followed by standing at 27° C. for 1 hr. After washing five times with 0.1% PBST solution, the HRP-conjugated anti-M13 antibody (GE Healthcare) was diluted to 1:1,000, and then the reaction was performed at 27° C. for 1 hr. After washing with 0.1% PBST five times, 100 μl of the TMB solution was dispensed into each well to induce a colorimetric reaction, and then the reaction was stopped by adding 100 μl of 1 M HCl. The absorbance was measured at 450 nm.
# [4] = molecular target: T1, fibronectin extra domain B (ED-B); assay: SPR (BIAcore X), biotin-EDB on streptavidin SA chip
# BSA = molecular target: T3, BSA (bovine, UniProt P02769); assay: phage ELISA, wells coated with 5 µg/ml protein, anti-M13-HRP, absorbance at 450 nm
# T3 construct: not further described; off-target control protein of the specificity ELISA
# T3 sequence (P02769 25-607 limits assumed): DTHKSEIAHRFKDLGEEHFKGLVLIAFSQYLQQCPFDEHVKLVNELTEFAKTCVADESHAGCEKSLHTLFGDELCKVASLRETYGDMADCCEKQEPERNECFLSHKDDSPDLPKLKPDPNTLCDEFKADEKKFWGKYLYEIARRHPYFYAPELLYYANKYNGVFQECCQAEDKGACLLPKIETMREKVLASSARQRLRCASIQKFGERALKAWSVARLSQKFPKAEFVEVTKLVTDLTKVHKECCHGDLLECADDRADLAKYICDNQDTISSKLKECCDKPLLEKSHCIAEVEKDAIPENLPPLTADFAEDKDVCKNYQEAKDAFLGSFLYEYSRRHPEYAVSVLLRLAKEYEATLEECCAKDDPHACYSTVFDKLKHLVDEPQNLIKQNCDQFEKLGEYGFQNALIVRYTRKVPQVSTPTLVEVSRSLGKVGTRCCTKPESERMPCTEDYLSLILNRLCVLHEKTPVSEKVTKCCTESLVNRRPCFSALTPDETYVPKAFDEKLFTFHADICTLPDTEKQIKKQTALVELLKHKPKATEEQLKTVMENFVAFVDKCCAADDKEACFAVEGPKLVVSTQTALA
# Protocol: In order to investigate specificities to streptavidin, of peptides (Strep_opti1 and Strep_opti2) obtained through sequencing, recombinant phages expressing these peptides were used to investigate specificities to streptavidin, BSA, ovalbumin, and VEGF. First, 5 μg/ml streptavidin, BSA, ovalbumin, and VEGF were put in a 96-well ELISA plate (50 μl per well), and then allowed to stand at 4° C. overnight. Next day, all the wells were washed three times with 0.1% PBST, and blocked at room temperature for 2 hrs using 2% BSA diluted with PBS. Then, the solution was discarded, followed by washing with 0.1% PBST three times. 800 μl of recombinant phages of each of Strep_opti1 and Strep_opti2 and 200 μl of 10% BSA were added thereto, and each 100 μl was dispensed into streptavidin, BSA, ovalbumin, and VEGF wells, followed by standing at 27° C. for 1 hr. After washing five times with 0.1% PBST solution, the HRP-conjugated anti-M13 antibody (GE Healthcare) was diluted to 1:1,000, and then the reaction was performed at 27° C. for 1 hr. After washing five times with 0.1% PBST, 100 μl of the TMB solution was dispensed into each well to induce a colorimetric reaction, and then the reaction was stopped by adding 100 μl of 1 M HCl. The absorbance was measured at 450 nm.
# streptavidin [5] = molecular target: T2, streptavidin; assay: SPR (BIAcore X), streptavidin immobilised on CM5 chip, synthetic peptide as analyte
# Protocol: (§2) A streptavidin-binding peptide optimized peptide and an existing peptide were synthesized (Anygen). The affinity measurement was conducted using BIAcore X (Biacore AB, Uppsala, Sweden). Here, 2000 RU of streptavidin was allowed to flow on the CM5 chip (Biacore) for immobilization. PBS (pH 7.4) was used as a running buffer, and the kinetics at different concentrations was measured under a flow rate of 30 μl per minute. The affinity was calculated using BlAevaluation software (Biacore AB, Uppsala, Sweden).
# (§3) Optimized peptide Strep_opti1 and control peptide […] were synthesized, and affinities thereof were measured using the SPR Biacore system.
# streptavidin [6] = molecular target: T2, streptavidin; assay: SPR (BIAcore X), ratio of KD values
# Protocol: as §2, §3
# [7] = molecular target: T1, fibronectin extra domain B (ED-B); assay: SPR (BIAcore X), biotin-EDB on streptavidin SA chip, synthetic peptide as analyte; peptide 2
# Protocol: as §1
# [8] = molecular target: T4, vascular endothelial growth factor receptor 1 (VEGFR1) (UniProt P17948 27-756, limits assumed); assay: SPR (BIAcore X), from RU at 5 µM against the control's RU at 200 µM
# T4 construct: Immobilised on a CM5 chip (7000 RU) for SPR; coated on plates for ELISA; also called VEGFR1 protein
# T4 sequence (P17948 27-756 limits assumed): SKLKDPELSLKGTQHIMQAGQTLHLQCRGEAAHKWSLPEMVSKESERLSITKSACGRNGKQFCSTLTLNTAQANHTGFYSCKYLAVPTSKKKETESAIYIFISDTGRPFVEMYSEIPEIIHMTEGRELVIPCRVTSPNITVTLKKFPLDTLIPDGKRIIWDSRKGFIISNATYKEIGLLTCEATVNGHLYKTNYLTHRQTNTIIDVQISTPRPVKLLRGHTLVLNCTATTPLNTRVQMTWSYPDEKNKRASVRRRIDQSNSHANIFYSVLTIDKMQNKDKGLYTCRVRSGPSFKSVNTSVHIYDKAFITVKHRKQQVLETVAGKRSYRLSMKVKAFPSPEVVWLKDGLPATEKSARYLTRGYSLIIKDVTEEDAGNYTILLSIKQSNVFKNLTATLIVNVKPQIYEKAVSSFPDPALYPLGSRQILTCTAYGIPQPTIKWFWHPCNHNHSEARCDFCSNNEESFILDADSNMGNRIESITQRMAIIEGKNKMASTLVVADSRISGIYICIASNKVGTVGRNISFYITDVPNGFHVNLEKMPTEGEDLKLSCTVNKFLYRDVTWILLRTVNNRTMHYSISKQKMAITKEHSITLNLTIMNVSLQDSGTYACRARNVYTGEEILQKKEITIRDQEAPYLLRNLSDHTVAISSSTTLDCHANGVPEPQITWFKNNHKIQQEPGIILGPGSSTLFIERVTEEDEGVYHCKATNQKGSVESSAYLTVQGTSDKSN
# Protocol: as §2, with “VEGFR1-binding” for “streptavidin-binding”, “7000” for “2000”, “VEGFR1” for “streptavidin”
# Optimized peptide VEGFR1_opti1 and control peptide GNQWFI were synthesized, and affinities thereof were measured using the SPR Biacore system.
binder,measurement,setting,value
B1,Kd,[1],115 nM
same,koff,[2],0.02 s⁻¹
same,kon,[2],250000 M⁻¹ s⁻¹
GNQWFIGGGSWTWENGKWTWKGKLQNPM (also called KPI-BPB VEGFR1_opti2) [VEGFR1_opti2],binding result,streptavidin [3],no binding
CSSPIQGSWTWENGKWTWKGIIRLEQ (also called BPB2EDB; BPB2) [peptide 3 (CSSPIQGSWTWENGKWTWKGIIRLEQ)],Kd,[4],16 nM
same,koff,[4],0.00051 s⁻¹
same,kon,[4],30000 M⁻¹ s⁻¹
WSHPQFEKGGGSWTWENGKWTWKGAHPQVR (Synthetic peptide in SPR) [Strep_opti1],binding result,BSA,no binding
same,Kd,streptavidin [5],67 nM
same,fold increase in affinity compared with control peptide WSHPQFEK,streptavidin [6],1220 fold
B2,koff,[2],0.01 s⁻¹
same,kon,[2],370000 M⁻¹ s⁻¹
same,Kd,[7],35 nM
B3,fold increase in affinity compared with the control peptide,[8],~360 fold
same,binding result,streptavidin [3],no binding
WSHPQFEKGGGSWTWENGKWTWKGTLIHPM [Strep_opti2],binding result,BSA,no binding
GNQWFIGGGSWTWENGKWTWKGQQAIQP (also called KPI-BPB VEGFR1_opti3) [VEGFR1_opti3],binding result,streptavidin [3],no binding
B4,Kd,streptavidin [5],82000 nM
